Consider three molecules from US20170051048A1 (ALDERBIO, published 2017).

The target in experiment [1] is T1, Homo sapiens Beta-Nerve Growth Factor (beta-NGF) (Homo sapiens, UniProt P01138 122-241).
T1 construct: Biotinylated and held on neutravidin plates in the ELISA; also called huNGF; B-NGF
The experiment is described as follows: Antigen binding ELISA: biotinylated NGF on neutravidin plates, anti-human Fab-fragment HRP, OD 450 nm. As to the method: (§1) To identify and characterize antibodies and Fab fragments that bind to human NGF, antibody- and Fab-containing solutions were tested by ELISA. Briefly, neutravidin coated plates (Thermo Scientific), were blocked with ELISA buffer (0.1 mg/mL BSA, 1×PBS pH 7.4, 0.002% Tween 20 and 0.005% sodium azide) for 1 hr at room temperature. The plates were then coated with a 1 µg/mL biotinylated B-NGF solution in ELISA buffer for 1 hour at room temperature. This was followed by a wash step (3× using PBS plus 0.05% Tween 20) and a second block with ELISA buffer. The recombinant antibodies or Fabs were then added onto the plates and incubated for 1 hour at room temperature and then washed 3× with PBS/Tween solution. For development, an anti-human Fc-HRP or an anti-human Fab-fragment HRP (1:5000 dilution in ELISA buffer) was added onto the wells and incubated for 45 min at RT. After a 3× wash step with PBS/Tween solution, the plate was developed using TMB substrate for 3 minutes, stopped using 0.5M HCl, and read at 450 nm.

The target in experiment [2] is T1, Homo sapiens Beta-Nerve Growth Factor …. The experiment is described as follows: Antigen binding ELISA: biotinylated NGF on neutravidin plates, anti-human Fc-HRP, OD 450 nm. As to the method: as §1

T1 sequence (P01138 122-241): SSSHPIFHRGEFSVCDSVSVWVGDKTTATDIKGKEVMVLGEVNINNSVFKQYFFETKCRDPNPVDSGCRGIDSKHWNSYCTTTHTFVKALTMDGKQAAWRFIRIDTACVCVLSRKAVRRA

B1: Antibody fragment Fab1 (Fab, V domains shown)
VH: EVQLVESGGGLVQPGGSLRLSCAASGFTVSNYAVGWVRQAPGKGLEWVGIIGRNGNTWYASSARGRFTISRDNSKNTLYLQMNSLRAEDTAVYYCARGYGRSVAYYVFNIWGPGTLVTVSS
VL: DIQMTQSPSTLSASVGDRVTITCQASQSIYSNLAWYQQKPGKAPKLLIYDASTLESGVPSRFSGSGSGTEYTLTISSLQPDDFATYYCQQGFTVSDIDNAFGGGTKVEIKR
Take B1: in experiment [1], the EC50 (as a rule, the concentration needed to bring the measured effect to its halfway point) came out at 400 pM and the EC50 (read off the curve) (in general, the concentration giving half of the maximal effect) was around 40 pM.

B2: Antibody fragment Fab2 (Fab, V domains shown)
VH: EVQLVESGGGLVQPGGSLRLSCAASGFTVSNYAVGWVRQAPGKGLEWVGIIGRNGNTWYASSARGRFTISRDNSKNTLYLQMNSLRAEDTAVYYCARGYGRSVAYYVFNIWGPGTLVTVSS
VL: DIQMTQSPSTLSASVGDRVTITCQASQSIYSNLAWYQQKPGKAPKLLIYDASTLESGVPSRFSGSGSGTEYTLTISSLQPDDFATYYCQQGFTVSDIDNAFGGGTKVEIKR
Consider B2, for which, in experiment [1], the half-maximal effective concentration (EC50) amounted to 800 pM and the “EC50 (read off the curve)” value was around 80 pM.

B3: Antibody Ab3 (antibody, human IgG1, kappa, N297A, V domains shown)
VH: QSVEESGGRLVTPGTPLTLTCTVSGFSLSSYVMIWVRQAPGKGLEYIGITWSAGTYYASWAKGRFTISKTSSTTVDLKITSPTTEDTATYFCAGGGGSIYDIWGPGTLVTVSS
VL: AVLTQTPSPVSAAMGDTVTIKCQSSQSVYKNNYLSWYQQKPGQPPRLLIYDASNLPSGVPSRFSGSGSGTQFTLTISGVQCDDAATYYCLGDYDDDADNAFGGGTEVVVKR
As to B3, in experiment [2], the EC50 was 257 pM and the “EC50 (read off the curve)” value was around 300 pM.
